# Source: patent US20130115220A1, “METHOD FOR PREVENTION OR TREATMENT OF METABOLIC SYNDROME” (DAINIPPON SUMITOMO PHARMA CO., LTD., priority 2010, published 2013)
# B1: human rAIM: human AIM protein labeled with HA-tag produced in HEK293T cells (protein)
# chain: SPSGVRLVGGLHRCEGRVEVEQKGQWGTVCDDGWDIKDVAVLCRELGCGAASGTPSGILYEPPAEKEQKVLIQSVSCTGTEDTLAQCEQEEVYDCSHDEDAGASCENPESSFSPVPEGVRLADGPGHCKGRVEVKHQNQWYTVCQTGWSLRAAKVVCRQLGCGRAVLTQKRCNKHAYGRKPIWLSQMSCSGREATLQDCPSGPWGKNTCNHDEDTWVECEDPFDLRLVGGDNLCSGRLEVLHKGVWGSVCDDNWGEKEDQVVCKQLGCGKSLSPSFRDRKCYGPGVGRIWLDNVRCSGEEQSLEQCQHRFWGFHDCTHQEDVAVICSG
# modifications: left off: small tags and cut ends
# notes: human AIM protein labeled with HA-tag produced in HEK293T cells
# Tested on: 3T3-L1 preadipocytes
# Assay: Differentiation of 3T3-L1 preadipocytes into mature adipocytes, lipid droplet formation by oil-red-O
# Format: cell-based
# Conditions: human rAIM used for AIM loading
# Protocol: To examine the function of AIM produced by macrophage that infiltrated into adipose tissue on the surrounding adipocytes, an experiment was performed to load AIM in the culture process for differentiation of 3T3-L1 preadipocytes into mature adipocytes.
# As AIM, recombinant AIM protein (rAIM) of mouse was used. rAIM was prepared by culturing human-derived HEK293T cells transfected with a vector expressing mouse AIM (pCAGGS-mAIM-HA plasmid) in a serum-free medium (FreeStyle™ 293 Expression Medium; Invitrogen). rAIM was purified from the culture supernatant thereof using an anti-HA antibody column. In other Reference Examples shown below, AIM used was a similar rAIM protein. AIM was loaded by adding AIM to a culture medium at a concentration of 5 μg/ml.
# In addition, differentiation of 3T3-L1 cells was induced as shown in FIG. 13 by first proliferating 3T3-L1 cells by cultivating for 4 days (day(−2)-day 2), after which cultivating in a culture medium containing insulin, dexamethasone (DEX) and isobutylmethylxanthine (IBMX) for 2 days (day 2-day 4) to start differentiation induction stimulation, and further cultivating in a culture medium containing insulin for 2 days (day 4-day 6).
# After the differentiation induction stimulation period (day 2-day 6), the cells were continuously cultured in a culture medium free of such differentiation induction stimulation factors. Then, the cells on day 10 day from the start of the differentiation induction stimulation (day 12) were stained with oil-red-O, and the state of differentiation of 3T3-L1 cells into mature adipocytes was observed.
molecule,measurement,value
B1,differentiation of mouse-derived 3T3-L1 cells,similarly suppressed
